Consider five molecules from article PMC8408477.

Data set [1] deals with T1, GST-RhBBX28 (Rosa hybrida, UniProt A0A8K1NC92 1-241).
T1 sequence: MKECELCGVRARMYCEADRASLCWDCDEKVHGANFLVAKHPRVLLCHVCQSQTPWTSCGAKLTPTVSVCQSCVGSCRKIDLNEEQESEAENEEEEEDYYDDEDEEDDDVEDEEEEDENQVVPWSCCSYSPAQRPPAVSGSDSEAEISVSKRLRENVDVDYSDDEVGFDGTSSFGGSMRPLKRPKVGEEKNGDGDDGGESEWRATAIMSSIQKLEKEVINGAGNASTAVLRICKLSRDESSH
The data set can be described thus: competition.

Data set [2] concerns the target T1, GST-RhBBX28. The data set can be described thus: EMSA. (A gel shift assay detects complexes by their altered migration in electrophoresis.)
Data set [3] concerns the target T1, GST-RhBBX28. The data set can be described thus: EMSA. This is another data set of the same source.
The target of data set [4] is T2, GST-RhPIF8 (Rosa hybrida, UniProt A0A8K1NC13 1-452).
T2 sequence: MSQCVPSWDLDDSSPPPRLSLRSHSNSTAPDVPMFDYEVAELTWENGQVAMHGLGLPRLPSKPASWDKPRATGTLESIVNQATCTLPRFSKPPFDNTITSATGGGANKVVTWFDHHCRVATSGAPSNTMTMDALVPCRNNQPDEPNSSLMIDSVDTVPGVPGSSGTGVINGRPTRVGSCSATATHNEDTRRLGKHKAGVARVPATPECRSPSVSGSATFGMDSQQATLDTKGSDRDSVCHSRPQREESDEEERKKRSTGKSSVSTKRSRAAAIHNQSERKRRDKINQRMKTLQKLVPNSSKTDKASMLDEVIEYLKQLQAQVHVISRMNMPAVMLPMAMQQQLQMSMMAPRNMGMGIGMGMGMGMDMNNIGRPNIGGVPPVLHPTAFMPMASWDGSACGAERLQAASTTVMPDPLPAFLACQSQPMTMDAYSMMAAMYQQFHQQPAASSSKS
The data set can be described thus: EMSA.

In data set [5] the target is T2, GST-RhPIF8. The data set can be described thus: competition.

B1: RhSDH1 mProbe (dsDNA)
DNA 1: GTCAACTCCTAAAAAATCATGAGTCTTCTATAGGAATCAAAAAAAAACATTCTGCA
DNA 2: TGCAGAATGTTTTTTTTTGATTCCTATAGAAGACTCATGATTTTTTAGGAGTTGAC
B1: in the data set with GST-RhBBX28 [1], the binding result is “no binding”.

B2: RhSDH1 probe (dsDNA)
DNA 1: GTCAACTCCTCACGTTTCATGAGTCTTCTATAGGAATCAACACGTTACATTCTGCA
DNA 2: TGCAGAATGTAACGTGTTGATTCCTATAGAAGACTCATGAAACGTGAGGAGTTGAC
For the molecule B2, in the data set with GST-RhBBX28 [2], the binding result is given as “binds”.

B3: RhSDH1 probe2 (dsDNA)
DNA 1: AGGTTTTGCAACTAGAAACGTGTTAGAAGAATAATCACAG
DNA 2: CTGTGATTATTCTTCTAACACGTTTCTAGTTGCAAAACCT
In the case of B3, the binding result with GST-RhBBX28 [3] is listed as “no binding”.

B4: RhBBX28 probe (dsDNA)
DNA 1: GCCTAACACATGGCCACCATACCACCACGACCCTGC
DNA 2: GCAGGGTCGTGGTGGTATGGTGGCCATGTGTTAGGC
As for B4, the binding result in the data set with GST-RhPIF8 [4] is reported as “binds”.

B5: RhBBX28 mProbe (dsDNA)
DNA 1: GCCTAAAAAAAAACCACCATACCACAAAAAACCTGC
DNA 2: GCAGGTTTTTTGTGGTATGGTGGTTTTTTTTTAGGC
Regarding B5, the binding result in the data set with GST-RhPIF8 [5] is listed as “no binding”.
